How the values were obtained:
CD3 on Jurkat cells [1] = target: CD3 on Jurkat cells (human); assay: cell ELISA; -uPa
CD3 on Jurkat cells [2] = target: CD3 on Jurkat cells (human); assay: cell ELISA
CD3 on Jurkat cells [3] = target: CD3 on Jurkat cells (human); assay: cell ELISA; +uPa

CD3 on Jurkat cells (human), sequence (chain, as listed by the source, chain 1 of 4): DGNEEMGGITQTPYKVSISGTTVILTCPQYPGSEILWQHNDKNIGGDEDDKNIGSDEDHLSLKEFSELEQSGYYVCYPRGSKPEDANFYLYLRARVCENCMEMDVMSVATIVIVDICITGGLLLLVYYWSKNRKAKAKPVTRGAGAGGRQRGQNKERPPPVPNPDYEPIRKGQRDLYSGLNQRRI
CD3 on Jurkat cells (human), sequence (chain, as listed by the source, chain 2 of 4): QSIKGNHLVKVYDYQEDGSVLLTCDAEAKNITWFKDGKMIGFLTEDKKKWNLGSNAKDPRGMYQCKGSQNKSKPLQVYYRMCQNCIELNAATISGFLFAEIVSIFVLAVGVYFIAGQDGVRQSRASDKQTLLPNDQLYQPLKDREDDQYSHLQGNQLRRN
CD3 on Jurkat cells (human), sequence (chain, as listed by the source, chain 3 of 4): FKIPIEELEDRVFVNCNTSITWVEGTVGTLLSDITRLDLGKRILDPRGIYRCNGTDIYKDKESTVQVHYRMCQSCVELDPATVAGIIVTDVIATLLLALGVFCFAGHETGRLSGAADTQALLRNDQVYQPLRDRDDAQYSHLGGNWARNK
CD3 on Jurkat cells (human), sequence (chain, as listed by the source, chain 4 of 4): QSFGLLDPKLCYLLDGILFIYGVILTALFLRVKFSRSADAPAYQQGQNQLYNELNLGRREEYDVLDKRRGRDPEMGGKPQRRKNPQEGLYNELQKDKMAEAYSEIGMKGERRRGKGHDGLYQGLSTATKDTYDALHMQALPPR

B1: 30436 (WT PD-1: HA PD-L1 masked CD3 × Her2 Fab × scFv Fc, PD-1 cleavable), not treated with uPa (bispecific antibody)
heavy: not shown
light: AFTVTVPKDLYVVEYGSNMTIECKFPVEKQLDLAALQVFWMMEDKNIIQFVHGEEDLKVQHSSYRQRARLLKDQLSLGNAALQITDVKLQDAGVYTCLIAYKGADYKRITVKVNAEAAAKEAAAKDIQMTQSPSSLSASVGDRVTMTCSASSSVSYMNWYQQKPGKAPKRWIYDSSKLASGVPARFSGSGSGTDYTLTISSLQPEDFATYYCQQWSRNPPTFGGGTKLQITRTVAAPSVFIFPPSDEQLKSGTASVVCLLNNFYPREAKVQWKVDNALQSGNSQESVTEQDSKDSTYSLSSTLTLSKADYEKHKVYACEVTHQGLSSPVTKSFNRGEC
chain: not shown
- EC50 (CD3 on Jurkat cells [1]): 178 nM

B2: 31931 (Half-masked CD3 × Her2 Fab × scFv Fc, HA PD-L1 attached to LC) (bispecific antibody)
heavy: not shown
light: B1 light
chain: not shown
- EC50 (CD3 on Jurkat cells [2]): 5.33 nM

B3: 30436 treated with uPa (bispecific antibody)
heavy: not shown
light: B1 light
chain: not shown
- EC50 (CD3 on Jurkat cells [3]): 6.22 nM

B4: 31929 (Half-masked CD3 × Her2 Fab × scFv Fc, HA PD-1 attached to HC) (bispecific antibody)
heavy: not shown
light: DIQMTQSPSSLSASVGDRVTMTCSASSSVSYMNWYQQKPGKAPKRWIYDSSKLASGVPARFSGSGSGTDYTLTISSLQPEDFATYYCQQWSRNPPTFGGGTKLQITRTVAAPSVFIFPPSDEQLKSGTASVVCLLNNFYPREAKVQWKVDNALQSGNSQESVTEQDSKDSTYSLSSTLTLSKADYEKHKVYACEVTHQGLSSPVTKSFNRGEC
chain: not shown
- EC50 (CD3 on Jurkat cells [2]): 4.2 nM

B5: 30421 (CD3 × Her2 Fab × scFv Fc without mask) (bispecific antibody)
heavy: not shown
light: B4 light
chain: not shown
- EC50 (CD3 on Jurkat cells [2]): 1.22 nM

— US20230122079A1 (published 2023)
